# From patent US20230340081A1 (Hoffmann-La Roche, published 2023)
# Numbering of substitutions follows the chain as printed.
# T1: consensus S-HBs protein of HBV genotype I (ConsHBAg_I) (hepatitis B virus genotype I (consensus), UniProt P31873 175-400)
# T1 construct: also called genotype I S-HBs
# T1 chain: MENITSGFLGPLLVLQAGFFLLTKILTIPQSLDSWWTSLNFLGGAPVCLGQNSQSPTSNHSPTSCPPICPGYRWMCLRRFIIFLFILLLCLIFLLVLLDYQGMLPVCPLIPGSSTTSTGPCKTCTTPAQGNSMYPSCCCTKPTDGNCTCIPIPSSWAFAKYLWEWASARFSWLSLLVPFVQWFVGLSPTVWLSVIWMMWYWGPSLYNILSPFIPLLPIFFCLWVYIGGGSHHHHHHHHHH
# T2: consensus S-HBs protein of HBV genotype E (ConsHBAg_E) (hepatitis B virus genotype E (consensus), UniProt Q69603 174-399)
# T2 construct: also called genotype E S-HBs
# T2 chain: T1 chain with N3S, K122R, P127L, N131T, Y134F, T140S, T143S, A159G, Y161F, V184A
# B1: Bv4.115 (antibody)
# heavy: not shown
# light: DIQMTQSPSTLSASVGDRVTITCRASQSINTWLAWYQQKPGKAPKLLISKASSLESGVPSRFSGSGSGTEFTLSISSLQPDDFATYYCQQYNTFSFGQGTKLEIKRTVAAPSVFIFPPSDEQLKSGTASVVCLLNNFYPREAKVQWKVDNALQSGNSQESVTEQDSKDSTYSLSSTLTLSKADYEKHKVYACEVTHQGLSSPVTKSFNRGEC
# B2: Bc1.263 (antibody, human IgG1, kappa, V domains shown)
# VH: QVQLVQSGAEVKKPGSSVKVSCRASGGTFSNYGVNWVRQAPGQGLEWMGKIIPILGIVNYAQKFQGRVTITADKSTSTAYMELSSLRSEDTAVYYCARDRGGKPLYSYGYGLDYWGQGTLVTVSS
# VL: EIVLTQSPATLSLSPGERATLSCRASLSVSTYLAWYQKKPGQPPRLLIYDASKRATGIPARFSGSGSGTDFTLTISSLEPEDFAVYYCQQRSTTFGQGTKVEIKR
# B3: Bv4.105 (antibody, V domains shown)
# VH: QVQLVESGGGLVQSGRSLRLSCSAFGFTFGDYPIMWVRLAPGKGLEWVGFIRSKAYGGTAEYAASVKGRFTTSRDDSRSTAYLQMNSLKTEDTAVYYCTREGGHSGFWSGFNKIPTFDYWGQGSLVTVSS
# VL: DIQMTQSPSSLSASIGDRVSITCRASETIRTYLNWYQHKPGKAPQLLIYAASSVQSGVPSRFSGSGSGTDFTLTISNLQPEDFATYYCQQSYTSPWVTFGPGTKVDIKR
# B4: Bc1.229 (antibody, V domains shown)
# VH: QVQLVESGGGVVQPGRSLRVSCAASGFTFSNYGMHWVRQAPGKGLEWLAVIWNDGSNKYYADSVKGRFIISRDNSKNTLYLQMNSLGAEDTAMYYCAREGLTSVTMLDSWGQGALVTVSS
# VL: DIQMTQSPSSLSASVGDRVTITCRASQYISSFLNWYQQKPGKAPKLLIHVASSLQSGVPSRFSGSGSGTHFTLTISSLQPEDFATYYCQQSYSTPLFTFGPGTKVDIKR
# B5: Bc8.111 (antibody)
# heavy: not shown
# light: QSVLTQPHSVSESPGKTVTISCTRSSGSIASNYVQWYQQRPGSAPTTVIYEDNERPSGVPARFSGSIDSSSNSASLTISGLKTEDEADYYCQSYESSNWVFGGGTKLTVLGQPKAAPSVTLFPPSSEELQANKATLVCLISDFYPGAVTVAWKADSSPVKAGVETTTPSKQSNNKYAASSYLSLTPEQWKSHRSYSCQVTHEGSTVEKTVAPTECS
# B6: Bc1.187 (antibody, human IgG1, kappa)
# heavy: not shown
# light: DIQMTQSPSSLSAYVGDRVTITCRASQRISTYLNWYHQRPGKSPSLLIYGASSLQSGVPSRFSASASGTDFTLTISSLRPEDLGTYYCQQTYTLPPNSGGGTKVEIKRTVAAPSVFIFPPSDEQLKSGTASVVCLLNNFYPREAKVQWKVDNALQSGNSQESVTEQDSKDSTYSLSSTLTLSKADYEKHKVYACEVTHQGLSSPVTKSFNRGEC
# notes: also called Bcl.187; Bc1.187_huIgG1_wt
# B7: Bc1.128 (antibody)
# heavy: not shown
# light: DIQLTQSPSSLSASVGDRVTITCRASQGIRSDLGWYQQKPGKAPKRLIYGASNLQRGVPSRFSGSGSGTEFTLTISSLQPEDFASYYCLQHNSFPWTFGQGTKVEIKRTVAAPSVFIFPPSDEQLKSGTASVVCLLNNFYPREAKVQWKVDNALQSGNSQESVTEQDSKDSTYSLSSTLTLSKADYEKHKVYACEVTHQGLSSPVTKSFNRGEC
# Molecular target: HBV genotype D viruses (produced in HepG2.2.15 cell culture supernatant) (hepatitis B virus genotype D)
# Assay: cell-based or functional assay
row,Binder,HBV-gD in vitro neutralization (IC50 µg/ml)
1,B1,3.87e-06 µg/mL
2,B2,3.96e-06 µg/mL
3,B3,2.95e-06 µg/mL
4,B4,2.53e-05 µg/mL
5,B5,2.51e-06 µg/mL
6,B6,5e-08 µg/mL
7,B7,0.000544 µg/mL

# Molecular target: T3, consensus S-HBs protein of HBV genotype A (ConsHBAg_A) (hepatitis B virus genotype A (consensus), UniProt P03141 175-400)
# T3 construct: also called genotype A S-HBs
# Assay: flow cytometry, S-HBs-transfected 293-F cells
row,Binder,% of bound S-HBs-expressing cells
1,B1,88%
2,B3,21%
3,B4,75%
4,B5,65%
5,B6,73%
6,B7,64%

# Molecular target: T4, consensus S-HBs protein of HBV genotype B (ConsHBAg_B) (hepatitis B virus genotype B (consensus), UniProt Q9PWW3 175-400)
# T4 construct: also called genotype B S-HBs
# Assay: flow cytometry, S-HBs-transfected 293-F cells
row,Binder,% of bound S-HBs-expressing cells
1,B1,83%
2,B4,68%
3,B5,64%
4,B6,70%
5,B7,67%

# Molecular target: genotype D S-HBs mutant protein N146S (hepatitis B virus genotype D, UniProt P03138 164-389)
# Assay: flow cytometry, S-HBs-transfected 293-F cells
row,Binder,% of bound S-HBs-expressing cells
1,B1,67%
2,B4,56%
3,B5,55%
4,B6,48%
5,B7,46%

# Molecular target: genotype D S-HBs mutant protein G145R (hepatitis B virus genotype D, UniProt P03138 164-389)
# Assay: flow cytometry, S-HBs-transfected 293-F cells
row,Binder,% of bound S-HBs-expressing cells
1,B1,60%
2,B5,0%
3,B6,17%
4,B7,0%

# Molecular target: T5, consensus S-HBs protein of HBV genotype D (ConsHBAg_D) (hepatitis B virus genotype D (consensus), UniProt P03138 164-389)
# T5 construct: also called genotype D S-HBs; ConsD S-HBs
# Assay: flow cytometry, S-HBs-transfected 293-F cells
row,Binder,% of bound S-HBs-expressing cells
1,B1,89%
2,B4,73%
3,B5,71%
4,B6,66%
5,B7,64%

# Molecular target: T6, consensus S-HBs protein of HBV genotype H (ConsHBAg_H) (hepatitis B virus genotype H (consensus), UniProt Q8JMZ6 175-400)
# T6 construct: also called genotype H S-HBs
# T6 sequence (Q8JMZ6 175-400, tags left off): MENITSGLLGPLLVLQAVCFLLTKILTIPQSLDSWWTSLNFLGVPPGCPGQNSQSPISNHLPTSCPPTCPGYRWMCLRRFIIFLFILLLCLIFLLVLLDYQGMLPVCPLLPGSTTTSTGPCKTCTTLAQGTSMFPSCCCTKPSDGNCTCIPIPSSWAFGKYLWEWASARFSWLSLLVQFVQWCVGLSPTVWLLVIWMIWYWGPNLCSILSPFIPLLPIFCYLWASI
# Assay: flow cytometry, S-HBs-transfected 293-F cells
row,Binder,% of bound S-HBs-expressing cells
1,B1,77%
2,B3,55%
3,B4,74%
4,B5,67%
5,B6,59%
6,B7,59%

# Molecular target: genotype D S-HBs mutant protein T126A (hepatitis B virus genotype D, UniProt P03138 164-389)
# Assay: flow cytometry, S-HBs-transfected 293-F cells
row,Binder,% of bound S-HBs-expressing cells
1,B1,71%
2,B4,70%
3,B5,55%
4,B6,60%
5,B7,53%

# Molecular target: T1, consensus S-HBs protein of HBV genotype …
# Assay: flow cytometry, S-HBs-transfected 293-F cells
row,Binder,% of bound S-HBs-expressing cells
1,B1,71%
2,B4,64%
3,B5,52%
4,B6,54%
5,B7,47%

# Molecular target: T2, consensus S-HBs protein of HBV genotype …
# Assay: flow cytometry, S-HBs-transfected 293-F cells
row,Binder,% of bound S-HBs-expressing cells
1,B1,85%
2,B4,71%
3,B5,68%
4,B6,66%
5,B7,65%

# Molecular target: genotype D S-HBs mutant protein M133T (hepatitis B virus genotype D, UniProt P03138 164-389)
# Assay: flow cytometry, S-HBs-transfected 293-F cells
row,Binder,% of bound S-HBs-expressing cells
1,B1,67%
2,B4,62%
3,B5,54%
4,B6,52%
5,B7,48%

# Molecular target: T7, consensus S-HBs protein of HBV genotype F (ConsHBAg_F) (hepatitis B virus genotype F (consensus), UniProt Q05496 175-400)
# T7 construct: also called genotype F S-HBs
# T7 sequence (Q05496 175-400, tags left off): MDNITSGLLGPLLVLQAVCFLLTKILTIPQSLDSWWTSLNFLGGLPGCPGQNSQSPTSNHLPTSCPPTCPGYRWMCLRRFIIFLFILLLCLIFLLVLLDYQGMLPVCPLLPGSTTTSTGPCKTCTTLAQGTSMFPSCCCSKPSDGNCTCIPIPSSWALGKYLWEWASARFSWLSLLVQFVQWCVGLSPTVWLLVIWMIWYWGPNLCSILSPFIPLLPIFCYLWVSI
# Assay: flow cytometry, S-HBs-transfected 293-F cells
row,Binder,% of bound S-HBs-expressing cells
1,B1,73%
2,B3,46%
3,B4,68%
4,B5,66%
5,B6,58%
6,B7,58%

# Molecular target: T8, consensus S-HBs protein of HBV genotype C (ConsHBAg_C) (hepatitis B virus genotype C (consensus), UniProt P03140 175-400)
# T8 construct: also called genotype C S-HBs
# Assay: flow cytometry, S-HBs-transfected 293-F cells
row,Binder,% of bound S-HBs-expressing cells
1,B1,82%
2,B3,1%
3,B4,76%
4,B5,72%
5,B6,67%
6,B7,67%

# Molecular target: T9, consensus S-HBs protein of HBV genotype G (ConsHBAg_G) (hepatitis B virus genotype G (consensus), UniProt Q9IBI3 174-399)
# T9 construct: also called genotype G S-HBs
# Assay: flow cytometry, S-HBs-transfected 293-F cells
row,Binder,% of bound S-HBs-expressing cells
1,B1,83%
2,B4,79%
3,B5,60%
4,B6,64%
5,B7,58%

# Molecular target: genotype D S-HBs mutant protein Y134V (hepatitis B virus genotype D, UniProt P03138 164-389)
# Assay: flow cytometry, S-HBs-transfected 293-F cells
row,Binder,% of bound S-HBs-expressing cells
1,B1,66%
2,B4,67%
3,B5,56%
4,B6,57%
5,B7,47%

# Molecular target: T10, Ayw S-HBs protein (ayw HBsAg particles, Engerix-B (Ayw)) (hepatitis B virus, ayw subtype)
# Assay: ELISA on recombinant HBV vaccine particles
# Procedure: (§1) After washings with 0.05% Tween 20-PBS (PBST), plates were blocked 2 h with 2% BSA, 1 mM EDTA-PBST (Blocking solution), washed, and incubated with serially diluted purified serum IgG and recombinant monoclonal antibodies in PBS. For sandwich ELISAs, plates were coated overnight with purified IgG antibodies (250 ng/well in PBS), and treated as afore-mentioned prior to incubation with biotylinated-rS-HBs (100 ng/well in PBS) in PBS. […] Experiments were performed using HydroSpeed™ microplate washer and Sunrise™ microplate absorbance reader (Tecan Männedorf), with optical density measurements made at 405 nm (OD₄₀₅ₙₘ). […] All antibodies were tested in duplicate or triplicate in at least two independent experiments, which included mGO53 negative and appropriate positive controls.
row,Binder,EC50
1,B1,5.1 ng/mL
2,B3,4.8 ng/mL
3,B4,12.3 ng/mL
4,B5,9.5 ng/mL
5,B6,3.5 ng/mL
6,B7,5.7 ng/mL

# Molecular target: T11, Adw S-HBs protein (adw HBsAg particles, GenHevac (Adw)) (hepatitis B virus, adw subtype)
# T11 construct: also called GenHevac-B
# Assay: ELISA on recombinant HBV vaccine particles
# Procedure: as §1
row,Binder,EC50
1,B1,27.7 ng/mL
2,B3,8920 ng/mL
3,B4,26.1 ng/mL
4,B5,8.9 ng/mL
5,B6,4.9 ng/mL
6,B7,7.2 ng/mL

# Molecular target: T10, Ayw S-HBs protein (ayw HBsAg particles, …)
# Assay: ELISA, AUC of binding curve
# Design: unit not given beside the values
row,Binder,AUC (serotype binding)
1,B1,37
2,B3,33
3,B4,34
4,B5,36
5,B6,35
6,B7,37

# Molecular target: T11, Adw S-HBs protein (adw HBsAg particles, …)
# Assay: ELISA, AUC of binding curve
# Design: unit not given beside the values
row,Binder,AUC (serotype binding)
1,B1,36
2,B3,8
3,B4,35
4,B5,35
5,B6,36
6,B7,35
